Results on five molecules are retold here after patent publication US7141417 (THOMAS JEFFERSON UNIVERSITY, dated 2006).

The labels stand for the following.
T1: glutathione S-transferase (GST) fused with full-length (67 kilodalton) Fez1 protein (human, UniProt Q9Y250 1-596)
T1 construct: Order GST then Fez1 follows the usual pGEX layout; also called GST-fused Fez1; GST-fused full-length 67 kDa Fez1; not shown: glutathione-S-transferase (GST) of the pGEX fusion expression vector (Pharmacia)
T1 sequence: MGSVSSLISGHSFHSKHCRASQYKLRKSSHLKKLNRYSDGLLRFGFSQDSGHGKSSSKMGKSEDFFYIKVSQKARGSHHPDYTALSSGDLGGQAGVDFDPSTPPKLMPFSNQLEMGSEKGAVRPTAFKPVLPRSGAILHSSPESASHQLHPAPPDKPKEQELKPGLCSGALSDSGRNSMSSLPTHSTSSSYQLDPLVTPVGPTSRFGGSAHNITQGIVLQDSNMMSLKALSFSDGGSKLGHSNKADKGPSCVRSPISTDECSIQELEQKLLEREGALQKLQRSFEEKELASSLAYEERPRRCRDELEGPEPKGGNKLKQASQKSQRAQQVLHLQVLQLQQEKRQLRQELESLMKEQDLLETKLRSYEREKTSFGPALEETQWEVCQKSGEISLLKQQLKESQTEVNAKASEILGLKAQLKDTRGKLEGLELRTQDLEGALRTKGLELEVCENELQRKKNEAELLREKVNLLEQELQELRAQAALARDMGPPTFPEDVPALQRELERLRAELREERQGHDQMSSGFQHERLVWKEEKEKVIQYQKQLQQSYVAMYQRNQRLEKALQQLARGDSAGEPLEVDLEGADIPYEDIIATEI

B1: EF1-γ(N), ^35S-methionine-labeled in vitro translated deletion mutant of EF1-γ (other)
chain: MAAGTLYTYPENWRAFKALIAAQYSGAQVRVLSAPPHFHFGQTNRTPEFLRKFPAGKVPAFEGDDGFCVFESNAIAYYVSNEELRGSTPEAAAQVVQWVSFADSDIVPPASTWVFPTLGIMHHNKQATENAKEEVRRILGLLDAYLKTRTFLV
modifications: ^35S-methionine label ; 35S-labelled methionine residues (radiolabel), written M
B2: GST fused with EF1-γ(N) (other, human, UniProt P26641 1-153, looked up)
chain: B1 chain
notes: not shown: glutathione S-transferase (GST)
B3: EF1-γ(M), ^35S-methionine-labeled in vitro translated deletion mutant of EF1-γ (other)
chain: GERVTLADITVVCTLLWLYKQVLEPSFRQAFPNTNRWFLTCINQPQFRAVLGEVKLCEKMAQFDAKKFAETQPKKDTPRKEKGSREEKQKPQAERKEEKKAAAPAPEEEMDECEQALAAEPKAKDPFAHLPKSTFVLDEFKRKYSNEDT
modifications: ^35S-methionine label ; 35S-labelled methionine residues (radiolabel), written M
B4: ^35S-methionine-labeled in vitro translated EF1-α (other, UniProt P68104 1-462, looked up)
chain: MGKEKTHINIVVIGHVDSGKSTTTGHLIYKCGGIDKRTIEKFEKEAAEMGKGSFKYAWVLDKLKAERERGITIDISLWKFETSKYYVTIIDAPGHRDFIKNMITGTSQADCAVLIVAAGVGEFEAGISKNGQTREHALLAYTLGVKQLIVGVNKMDSTEPPYSQKRYEEIVKEVSTYIKKIGYNPDTVAFVPISGWNGDNMLEPSANMPWFKGWKVTRKDGNASGTTLLEALDCILPPTRPTDKPLRLPLQDVYKIGGIGTVPVGRVETGVLKPGMVVTFAPVNVTTEVKSVEMHHEALSEALPGDNVGFNVKNVSVKDVRRGNVAGDSKNDPPMEAAGFTAQVIILNHPGQISAGYAPVLDCHTAHIACKFAELKEKIDRRSGKKLEDGPKFLKSGDAAIVDMVPGKPMCVESFSDYPPLGRFAVRDMRQTVAVGVIKAVDKKAAGAGKVTKSAQKAQKAK
modifications: ^35S-methionine label
B5: ^35S-methionine-labeled in vitro translated full-length 67 kDa Fez1 (other)
chain: T1 sequence
modifications: ^35S-methionine label
notes: also called full-length (67 kDa) Fez1 protein

Experiment [1] deals with T1, glutathione S-transferase (GST) fused …. The experiment can be described thus: in vitro binding of ^35S-labeled deletion mutants with GST-fused Fez1. As for the experimental part: (§1) In vitro Transcription/Translation, GST-Fusion Protein and in vitro Binding Assay In vitro transcription and translation was performed using a commercially-available, rabbit reticulocyte-based system, (TNT™ T7 Quick Coupled Transcription/Translation System, Promega) by labeling with ^35S-methionine, according to supplier's instructions. GST-fusion proteins were isolated using a glutathione-agarose column (Pharmacia). Proteins were incubated in two binding buffers: buffer A (comprising 100 millimolar NaCl, 0.5% NP-40, 0.75 milligrams per milliliter bovine serum albumin (BSA), 20 millimolar Tris-HCl pH 8.0, and 1 millimolar EDTA) and buffer B (comprising 150 millimolar NaCl, 0.1% (v/v) Tween 20, 0.75 milligrams per milliliter BSA, 50 millimolar Tris-HCl pH 8.0, 5 millimolar EDTA, 10% (v/v) glycerol). After the glutathione-agarose beads had been pre-incubated in a 10% (w/v) BSA suspension, the beads were mixed with protein samples and washed 5 times, each wash comprising mixing the beads with 10 volumes of the binding buffer. After the beads had been washed, the bead-containing liquid was centrifuged to recover binding proteins. The samples were boiled for 3 minutes and then the proteins in the samples were separated by SDS-PAGE. The gel was dried and exposed to film for 4–24 hours at –80° C.

For experiment [2], the target named is B5. The experiment is described as follows: in vitro binding assay (figure legend); by paragraph 373 the labeled partner was Fez1 and EF1-γ(N) was GST-fused. The method, then:
as §1, with “C. […]” for “C.”

For experiment [3], the target named is T1, glutathione S-transferase (GST) fused …. The experiment can be described thus: in vitro binding of ^35S-methionine-labeled in vitro translated EFs to GST-fused Fez1, glutathione-agarose beads, SDS-PAGE. The method, then: as §1
For experiment [4] the target is unchanged. The experiment is described as follows: in vitro binding of ^35S-labeled full-length Fez1 with GST-fused full-length Fez1, buffer B. The method, then:
as §1
The amino acid sequence of Fez1 comprises a leucine-zipper-like region. […]

As to B1, the binding result in experiment [1] is reported as “binds”. Consider B2, for which, in experiment [2], the binding result is listed as “binds”.

With B3, in experiment [1], the binding result is “no binding”. B4: in experiment [3], the binding result is “no binding”. Consider B5, for which the binding result in experiment [4] is given as “binds”.
